Reference: CN113214399A (SHENZHEN INNOVA NANOBODI CO LTD, dated 2021)

B1: 带有化学发光区序列的纳米抗体1C5-HAP (other)
chain: QVQLQESGGGLVQAGGSLRLSCKASERTFSSYSMAWYRQAPGKKREFVASISWDDERTYYTDSVKGRFTISRPNAKNTVYLQMNSLKPEDTAVYYCAVGGLSDGLGPSYDYWGQGTQVTVSSGGGGSGGGGSGGGGSIIPVEEENPDFWNREAAEALGAAKKLQPAQTAAKNLIIFLGDGMGVSTVTAARILKGQKKDKLGPEIPLAMDRFPYVALSKTYNVDKHVPDSGATATAYLCGVKGNFQTIGLSAAARFNQCNTTRGNEVISVMNRAKKAGKSVGVVTTTRVQHASPAGTYAHTVNRNWYSDADVPASARQEGCQDIATQLISNMDIDVILGGGRKYMFRMGTPDPEYPDDYSQGGTRLDGKNLVQEWLAKRQGARYVWNRTELMQASLDPSVTHLMGLFEPGDMKYEIHRDSTLDPSLMEMTEAALRLLSRNPRGFFLFVEGGRIDHGHHESRAYRALTETIMFDDAIERAGQLTSEEDTLSLVTADHSHVFSFGGYPLRGSSIFGLAPGKARDRKAYTVLLYGNGPGYVLKDGARPDVTESESGSPEYRQQSAVPLDEETHAGEDVAVFARGPQAHLVHGVQEQTFIAHVMAFAACLEPYTACDLAPPAGTTD
notes: Expressed in 293 cells
B2: 纳米抗体1C5 (VHH)
VHH: QVQLQESGGGLVQAGGSLRLSCKASERTFSSYSMAWYRQAPGKKREFVASISWDDERTYYTDSVKGRFTISRPNAKNTVYLQMNSLKPEDTAVYYCAVGGLSDGLGPSYDYWGQGTQVTVSS

Legend:
血清标本中的AFP抗原 = target: T1, 血清标本中的AFP抗原 (UniProt P02771 19-609); experiment: Double-antibody sandwich chemiluminescence immunoassay, detection antibody
T1 construct: AFP in serum samples, detected by the double-antibody sandwich assay; also called 质控血清AFP; 标准血清中的AFP
T1 sequence (looked up): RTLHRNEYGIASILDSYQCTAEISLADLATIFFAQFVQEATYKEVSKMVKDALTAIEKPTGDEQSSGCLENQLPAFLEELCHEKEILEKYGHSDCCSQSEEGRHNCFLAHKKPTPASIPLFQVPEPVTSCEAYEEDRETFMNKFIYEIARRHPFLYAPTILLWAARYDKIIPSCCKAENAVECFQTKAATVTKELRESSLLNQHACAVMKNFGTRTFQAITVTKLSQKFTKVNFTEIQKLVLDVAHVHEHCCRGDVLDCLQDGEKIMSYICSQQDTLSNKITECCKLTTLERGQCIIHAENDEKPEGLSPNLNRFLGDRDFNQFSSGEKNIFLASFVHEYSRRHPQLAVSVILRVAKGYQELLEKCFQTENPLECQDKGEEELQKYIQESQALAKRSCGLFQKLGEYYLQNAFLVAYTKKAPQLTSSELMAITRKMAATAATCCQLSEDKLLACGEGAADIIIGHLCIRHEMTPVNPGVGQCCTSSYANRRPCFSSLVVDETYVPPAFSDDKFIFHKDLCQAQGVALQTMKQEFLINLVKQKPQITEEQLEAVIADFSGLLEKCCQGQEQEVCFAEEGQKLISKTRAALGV

[1] = target: T2, 重组AFP抗原 (甲胎蛋白, α-fetoprotein) (UniProt P02771 19-609, limits assumed); experiment: Biacore sequential injection on immobilised antigen
T2 construct: Bought recombinant antigen used to immunise the alpaca
T2 sequence (looked up): T1 sequence (looked up)

Binder | binding result (血清标本中的AFP抗原) | binding result [1]
B1 | binds | 
B2 |  | binds
